Starred links: 1 amine or outer side, 2 acyl side, 3 side chain; linkers in the order of their positions; H or OH if unused. Non-standard residues stand in square brackets, D forms with d. Primed or numbered codes have the meaning given here. dProc4Bn4Br = (2R,4R)-4-[(4-bromophenyl)methyl]pyrrolidine-2-carboxylic acid, O=C([C@H]1C[C@@H](Cc2ccc(Br)cc2)CN1[*:1])[*:2]; Trp(4-Cl)(βS-Me) = C[C@@H](c1c[nH]c2cccc(Cl)c12)[C@H](N)C(=O)O; Trp(βS-Me,4-F) = C[C@@H](c1c[nH]c2cccc(F)c12)[C@H](N)C(=O)O; Bip(4'-COOH) = N[C@@H](Cc1ccc(-c2ccc(C(=O)O)cc2)cc1)C(=O)O; Ala(1-bicyclo(1.1.1)pentyl) = N[C@@H](CC12CC(C1)C2)C(=O)O; dPro(4R-Bzl(4-F)) = O=C(O)[C@H]1C[C@@H](Cc2ccc(F)cc2)CN1; 1Nal(3S-Me) = C[C@@H](c1cccc2ccccc12)[C@H](N)C(=O)O; Ala(pyrimidin-5-yl) = N[C@@H](Cc1cncnc1)C(=O)O; Phe(4-COOH) = N[C@@H](Cc1ccc(C(=O)O)cc1)C(=O)O; dαMeDab = C[C@](CCN[*:3])(N[*:1])C(=O)[*:2]; Pro(cis-4-F) = O=C(O)[C@@H]1C[C@H](F)CN1; Ala(4-THP) = N[C@@H](CC1CCOCC1)C(=O)O; aIle = CC[C@@H](C)[C@H](N)C(=O)O; d(αMeK) = C[C@@](N)(CCCCN)C(=O)O; 4Pal = N[C@@H](Cc1ccncc1)C(=O)O; aThr = C[C@H](O)[C@H](N)C(=O)O; αMeD = C[C@](N)(CC(=O)O)C(=O)O; αMeK = C[C@](N)(CCCCN)C(=O)O; dαMeDab′ = not defined here; hSer = N[C@@H](CCO)C(=O)O; Dab = NCC[C@H](N)C(=O)O; Aib = CC(C)(N)C(=O)O; Sar = CNCC(=O)O
target: Recombinant human IL-1β (BioLegend 579404) (human, UniProt P01584 117-269); test: cell-based or functional assay

Binder | MRC5 IC50 [pM]
cyclo([Bip(4'-COOH)][4Pal][Phe(4-COOH)]G[Pro(cis-4-F)][Trp(βS-Me,4-F)][Aib]TW[αMeK][Ala(pyrimidin-5-yl)]Q[Dab]G[dPro(4R-Bzl(4-F))]) (ring closure inferred; not fully specified (bridges); printed as Bip4CO2H-4Pal-Phe4COOH-G-Proc4F-SbMeW4F-Aib-T-W-aMeK-PyrimAla-Q-Dab-G-dProc4Bn4F) [SEQ ID NO: 137] | 22
cyclo([Bip(4'-COOH)][4Pal][Phe(4-COOH)]G[Pro(cis-4-F)][Trp(βS-Me,4-F)][dαMeDab′]SW[Aib][Ala(pyrimidin-5-yl)]Q[Dab]G[dPro(4R-Bzl(4-F))]) (ring closure inferred; not fully specified (bridges); printed as Bip4CO2H-4Pal-Phe4COOH-G-Proc4F-SbMeW4F-daMeDab-S-W-Aib-PyrimAla-Q-Dab-G-dProc4Bn4F) [SEQ ID NO: 131] | 19
cyclo([Bip(4'-COOH)][Ala(1-bicyclo(1.1.1)pentyl)][Phe(4-COOH)]G[Pro(cis-4-F)][Trp(βS-Me,4-F)][Aib][hSer]W[αMeK][Ala(pyrimidin-5-yl)]Q[Dab]G[dPro(4R-Bzl(4-F))]) (ring closure inferred; not fully specified (bridges); printed as Bip4CO2H-AlaPent-Phe4COOH-G-Proc4F-SbMeW4F-Aib-hS-W-aMeK-PyrimAla-Q-Dab-G-dProc4Bn4F, cyclic (macrolactam)) [SEQ ID NO: 147] | 45
cyclo([Bip(4'-COOH)][Ala(1-bicyclo(1.1.1)pentyl)][Phe(4-COOH)]G[Pro(cis-4-F)][Trp(βS-Me,4-F)][Aib]SW[d(αMeK)][Ala(pyrimidin-5-yl)]Q[Dab]G[dPro(4R-Bzl(4-F))]) (ring closure inferred; not fully specified (bridges); printed as Bip4CO2H-AlaPent-Phe4COOH-G-Proc4F-SbMeW4F-Aib-S-W-daMeK-PyrimAla-Q-Dab-G-dProc4Bn4F, cyclic (macrolactam)) [SEQ ID NO: 145] | 41
cyclo([Bip(4'-COOH)][4Pal][Phe(4-COOH)]G[Pro(cis-4-F)][Trp(βS-Me,4-F)][Aib]EW[Aib][Ala(pyrimidin-5-yl)]Q[Dab]G[dProc4Bn4Br]) (ring closure inferred; not fully specified (bridges); printed as Bip4CO2H-4Pal-Phe4COOH-G-Proc4F-sbMeW4F-Aib-E-W-Aib-PyrimAla-Q-Dab-G-dProc4Bn4Br, cyclic (macrolactam)) [SEQ ID NO: 143] | 26
cyclo([Bip(4'-COOH)][4Pal][Phe(4-COOH)]G[Pro(cis-4-F)][Trp(βS-Me,4-F)][Aib]VW[αMeK][Ala(pyrimidin-5-yl)]Q[Dab]G[dPro(4R-Bzl(4-F))]) (ring closure inferred; not fully specified (bridges); printed as Bip4CO2H-4Pal-Phe4COOH-G-Proc4F-SbMeW4F-Aib-V-W-aMeK-PyrimAla-Q-Dab-G-dProc4Bn4F) [SEQ ID NO: 135] | 35
cyclo([Bip(4'-COOH)][4Pal][Phe(4-COOH)]G[Pro(cis-4-F)][Trp(4-Cl)(βS-Me)][Aib]SW[Aib][Ala(pyrimidin-5-yl)]Q[Dab]G[dPro(4R-Bzl(4-F))]) (ring closure inferred; not fully specified (bridges); printed as Bip4CO2H-4Pal-Phe4COOH-G-Proc4F-SbMeW4Cl-Aib-S-W-Aib-PyrimAla-Q-Dab-G-dProc4Bn4F) [SEQ ID NO: 139] | 34
cyclo([Bip(4'-COOH)][Ala(1-bicyclo(1.1.1)pentyl)][Phe(4-COOH)]G[Pro(cis-4-F)][Trp(βS-Me,4-F)][Aib]SW[αMeK][Ala(4-THP)]Q[Dab]G[dPro(4R-Bzl(4-F))]) (ring closure inferred; not fully specified (bridges); printed as Bip4CO2H-AlaPent-Phe4COOH-G-Proc4F-SbMeW4F-Aib-S-W-aMeK-AlaTHP4-Q-Dab-G-dProc4Bn4F, cyclic (macrolactam)) [SEQ ID NO: 146] | 34
cyclo([Bip(4'-COOH)][4Pal][Phe(4-COOH)]G[Pro(cis-4-F)][Trp(βS-Me,4-F)][Aib][hSer]W[αMeK][Ala(pyrimidin-5-yl)]Q[Dab]G[dPro(4R-Bzl(4-F))]) (ring closure inferred; not fully specified (bridges); printed as Bip4CO2H-4Pal-Phe4COOH-G-Proc4F-SbMeW4F-Aib-hS-W-aMeK-PyrimAla-Q-Dab-G-dProc4Bn4F) [SEQ ID NO: 133] | 21

Further lines, results first:

MRC5 IC50 [pM] | Binder
33 | cyclo([Bip(4'-COOH)][4Pal][Phe(4-COOH)]G[Pro(cis-4-F)][1Nal(3S-Me)][Aib]SW[Aib][Ala(pyrimidin-5-yl)]Q[Dab]G[dPro(4R-Bzl(4-F))]) (ring closure inferred; not fully specified (bridges); printed as Bip4CO2H-4Pal-Phe4COOH-G-Proc4F-SbMe1Nal-Aib-S-W-Aib-PyrimAla-Q-Dab-G-dProc4Bn4F) [SEQ ID NO: 140]
15 | cyclo([Bip(4'-COOH)][4Pal][Phe(4-COOH)]G[Pro(cis-4-F)][Trp(βS-Me,4-F)][Aib]EW[αMeK][Ala(pyrimidin-5-yl)]Q[Dab][Sar][dPro(4R-Bzl(4-F))]) (ring closure inferred; not fully specified (bridges); printed as Bip4CO2H-4Pal-Phe4COOH-G-Proc4F-SbMeW4F-Aib-E-W-aMeK-PyrimAla-Q-Dab-Sar-dProc4Bn4F) [SEQ ID NO: 132]
21 | cyclo([Bip(4'-COOH)][4Pal][Phe(4-COOH)]G[Pro(cis-4-F)][Trp(βS-Me,4-F)][Aib]AW[αMeK][Ala(pyrimidin-5-yl)]Q[Dab]G[dPro(4R-Bzl(4-F))]) (ring closure inferred; not fully specified (bridges); printed as Bip4CO2H-4Pal-Phe4COOH-G-Proc4F-SbMeW4F-Aib-A-W-aMeK-PyrimAla-Q-Dab-G-dProc4Bn4F) [SEQ ID NO: 134]
11 | cyclo([Bip(4'-COOH)][4Pal][Phe(4-COOH)]G[Pro(cis-4-F)][Trp(βS-Me,4-F)][Aib]SW[αMeD][Ala(pyrimidin-5-yl)]Q[Dab]G[dPro(4R-Bzl(4-F))]) (ring closure inferred; not fully specified (bridges); printed as Bip4CO2H-4Pal-Phe4COOH-G-Proc4F-SbMeW4F-Aib-S-W-aMeD-PyrimAla-Q-Dab-G-dProc4Bn4F) [SEQ ID NO: 141]
32 | cyclo([Bip(4'-COOH)][4Pal][Phe(4-COOH)]G[Pro(cis-4-F)][Trp(4-Cl)(βS-Me)][Aib]EW[Aib][Ala(pyrimidin-5-yl)]Q[Dab]G[dPro(4R-Bzl(4-F))]) (ring closure inferred; not fully specified (bridges); printed as Bip4CO2H-4Pal-Phe4COOH-G-Proc4F-sbMeW4Cl-Aib-E-W-Aib-PyrimAla-Q-Dab-G-dProc4Bn4F, cyclic (macrolactam)) [SEQ ID NO: 148]
19 | cyclo([Bip(4'-COOH)][4Pal][Phe(4-COOH)]G[Pro(cis-4-F)][Trp(βS-Me,4-F)][Aib]SW[dαMeDab][Ala(pyrimidin-5-yl)]Q[Dab]G[dPro(4R-Bzl(4-F))]) (ring closure inferred; not fully specified (bridges); printed as Bip4CO2H-4Pal-Phe4COOH-G-Proc4F-SbMeW4F-Aib-S-W-daMeDab-PyrimAla-Q-Dab-G-dProc4Bn4F) [SEQ ID NO: 142]
27 | cyclo([Bip(4'-COOH)][4Pal][Phe(4-COOH)]G[Pro(cis-4-F)][Trp(βS-Me,4-F)][Aib][aIle]W[αMeK][Ala(pyrimidin-5-yl)]Q[Dab]G[dPro(4R-Bzl(4-F))]) (ring closure inferred; not fully specified (bridges); printed as Bip4CO2H-4Pal-Phe4COOH-G-Proc4F-SbMeW4F-Aib-alI-W-aMeK-PyrimAla-Q-Dab-G-dProc4Bn4F) [SEQ ID NO: 136]
31 | cyclo([Bip(4'-COOH)][Ala(1-bicyclo(1.1.1)pentyl)][Phe(4-COOH)]G[Pro(cis-4-F)][Trp(βS-Me,4-F)][Aib]SW[αMeK][Ala(pyrimidin-5-yl)]Q[Dab]G[dPro(4R-Bzl(4-F))]) (ring closure inferred; not fully specified (bridges); printed as Bip4CO2H-AlaPent-Phe4COOH-G-Proc4F-SbMeW4F-Aib-S-W-aMeK-PyrimAla-Q-Dab-G-dProc4Bn4F, cyclic (macrolactam)) [SEQ ID NO: 144]
21 | cyclo([Bip(4'-COOH)][4Pal][Phe(4-COOH)]G[Pro(cis-4-F)][Trp(βS-Me,4-F)][Aib][aThr]W[αMeK][Ala(pyrimidin-5-yl)]Q[Dab]G[dPro(4R-Bzl(4-F))]) (ring closure inferred; not fully specified (bridges); printed as Bip4CO2H-4Pal-Phe4COOH-G-Proc4F-SbMeW4F-Aib-alT-W-aMeK-PyrimAla-Q-Dab-G-dProc4Bn4F) [SEQ ID NO: 138]

Source: patent US20260242419A1, “A CYCLIC PEPTIDE FOR TRAPPING INTERLEUKIN-1 BETA” (Merck Sharp & Dohme LLC, priority 2023, published 2026)
